Measurements from the supplement of paper PMC5998384.

Tests used:
[1] = system: HeLa Kyoto; assay: melting temperature (median over replicates), in situ; higher = more thermally stable
[2] = system: HeLa Kyoto; assay: solubility in G1/S (NP-40 vs SDS abundance) (log2 ratio); higher = more soluble; details: cell cycle stage: G1/S
[3] = system: HeLa Kyoto; assay: solubility change mitosis vs G1/S (difference of NP-40 vs SDS log2 ratios) (log2 ratio difference); higher = more soluble in mitosis
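Wherever melting temperature (median over replicates), in situ is given: HeLa Kyoto cells synchronized by double thymidine or nocodazole block, proteins quantified by TMT10plex mass spectrometry, three independent biological replicates.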
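Wherever solubility change mitosis vs G1/S (difference of NP-40 vs SDS log2 ratios) is given: synchronized HeLa Kyoto cells (double thymidine block for G1/S, nocodazole release for mitosis), protein amounts in NP-40 versus SDS lysates quantified by mass spectrometry, three biological replicates.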
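Wherever solubility in G1/S (NP-40 vs SDS abundance) is given: HeLa Kyoto cells arrested at G1/S by double thymidine block, proteins quantified by TMT10plex mass spectrometry in mild NP-40 versus SDS extracts, three biological replicates.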

Q: Which melting temperature ([1]; cell cycle stage: mitosis) does the source give for “MSEAMDQPAGGPGNPRPGEGDDGSMEPGTCQELLHRLRELEAENSALAQANENQRETYERCLDEVANHVVQALLNQKDLREECIKLKKRVFDLERQNQMLSALFQQKLQLTTGSLPQIPLTPLQPPSEPPASPSLSSTEGPAAPLPLGHCAGQREVCWEQQLRPGGPGPPAAPPPALDALSPFLRKKAQILEVLRALEETDPLLLCSPATPWRPPGQGPGSPEPINGELCGPPQPEPSPWAPCLLLGPGNLGGLLHWERLLGGLGGEEDTGRPWGPSRGPPQAQGTSSGPNCAPGSSSSSSSDEAGDPNEAPSPDTLLGALARRQLNLGQLLEDTESYLQAFLAGAAGPLNGDHPGPGQSSSPDQAPPQLSKSKGLPKSAWGGGTPEAHRPGFGATSEGQGPLPFLSMFMGAGDAPLGSRPGHPHSSSQVKSKLQIGPPSPGEAQGPLLPSPARGLKFLKLPPTSEKSPSPGGPQLSPQLPRNSRIPCRNSGSDGSPSPLLARRGLGGGELSPEGAQGLPTSPSPCYTTPDSTQLRPPQSALSTTLSPGPVVSPCYENILDLSRSTFRGPSPEPPPSPLQVPTYPQLTLEVPQAPEVLRSPGVPPSPCLPESYPYGSPQEKSLDKAGSESPHPGRRTPGNSSKKPSQGSGRRPGDPGSTPLRDRLAALGKLKTGPEGALGSEKNGVPARPGTEKTRGPGKSGESAGDMVPSIHRPLEQLEAKGGIRGAVALGTNSLKQQEPGLMGDPGARVYSSHSMGARVDLEPVSPRSCLTKVELAKSRLAGALCPQVPRTPAKVPTSAPSLGKPNKSPHSSPTKLPSKSPTKVVPRPGAPLVTKESPKPDKGKGPPWADCGSTTAQSTPLVPGPTDPSQGPEGLAPHSAIEEKVMKGIEENVLRLQGQERAPGAEVKHRNTSSIASWFGLKKSKLPALNRRTEATKNKEGAGGGSPLRREVKMEARKLEAESLNISKLMAKAEDLRRALEEEKAYLSSRARPRPGGPAPGPNTGLGQVQGQLAGMYQGADTFMQQLLNRVDGKELPSKSWREPKPEYGDFQPVSSDPKSPWPACGPRNGLVGPLQGCGKPPGKPSSEPGRREEMPSEDSLAEPVPTSHFTACGSLTRTLDSGIGTFPPPDHGSSGTPSKNLPKTKPPRLDPPPGVPPARPPPLTKVPRRAHTLEREVPGIEELLVSGRHPSMPAFPALLPAAPGHRGHETCPDDPCEDPGPTPPVQLAKNWTFPNTRAAGSSSDPLMCPPRQLEGLPRTPMALPVDRKRSQEPSRPSPTPQGPPFGGSRTPSTSDMAEEGRVASGGPPGLETSESLSDSLYDSLSSCGSQG [NCKAP5L]” here?
A: 50.4 °C

Q: What about the “solubility in G1/S (log2)” value [2] of the same sequence?
A: 0.0838

Q: What about the “solubility change mitosis (log2)” value [3] of the same sequence?
A: -0.128

Q: What does the source list for “MSEVSCKKRDDYLEWPEYFMAVAFLSAQRSKDPNSQVGACIVNSENKIVGIGYNGMPNGCSDDVLPWRRTAENKLDTKYPYVCHAELNAIMNKNSTDVKGCSMYVALFPCNECAKLIIQAGIKEVIFMSDKYHDSDEATAARLLFNMAGVTFRKFIPKCSKIVIDFDSINSRPSQKLQ [DCTD]”?
A: melting temperature ([1]; cell cycle stage: G1/S): 59.8 °C; melting temperature ([1]; cell cycle stage: mitosis): 58.5 °C; solubility in G1/S (log2) [2]: 0.419; solubility change mitosis (log2) [3]: 0.0667

Q: How did the melting temperature ([1]; cell cycle stage: G1/S) turn out when “MSGIKRTIKETDPDYEDVSVALPNKRHKAIENSARDAAVQKIETIIKEQFALEMKNKEHEIEVIDQRLIEARRMMDKLRACIVANYYASAGLLKVSEGSKTCDTMVFNHPAIKKFLESPSRSSSPANQRAETPSANHSESDSLSQHNDFLSDKDNNSNMDIEERLSNNMEQRPSRNTGRDTSRITGSHKTEQRNADLTDETSRLFVKKTIVVGNVSKYIPPDKREENDQSTHKWMVYVRGSRREPSINHFVKKVWFFLHPSYKPNDLVEVREPPFHLTRRGWGEFPVRVQVHFKDSQNKRIDIIHNLKLDRTYTGLQTLGAETVVDVELHRHSLGEDCIYPQSSESDISDAPPSLPLTIPAPVKASSPIKQSHEPVPDTSVEKGFPASTEAERHTPFYALPSSLERTPTKMTTSQKVTFCSHGNSAFQPIASSCKIVPQSQVPNPESPGKSFQPITMSCKIVSGSPISTPSPSPLPRTPTSTPVHVKQGTAGSVINNPYVIMDKQPGQVIGATTPSTGSPTNKISTASQVSQGTGSPVPKIHGSSFVTSTVKQEDSLFASMPPLCPIGSHPKVQSPKPITGGLGAFTKVIIKQEPGEAPHVPATGAASQSPLPQYVTVKGGHMIAVSPQKQVITPGEGIAQSAKVQPSKVVGVPVGSALPSTVKQAVAISGGQILVAKASSSVSKAVGPKQVVTQGVAKAIVSGGGGTIVAQPVQTLTKAQVTAAGPQKSGSQGSVMATLQLPATNLANLANLPPGTKLYLTTNSKNPSGKGKLLLIPQGAILRATNNANLQSGSAASGGSGAGGGGGGGGGGGSGSGGGGSTGGGGGTAGGGTQSTAGPGGISQHLTYTSYILKQTPQGTFLVGQPSPQTSGKQLTTGSVVQGTLGVSTSSAQGQQTLKVISGQKTTLFTQAAHGGQASLMKISDSTLKTVPATSQLSKPGTTMLRVAGGVITTATSPAVALSANGPAQQSEGMAPVSSSTVSSVTKTSGQQQVCVSQATVGTCKAATPTVVSATSLVPTPNPISGKATVSGLLKIHSSQSSPQQAVLTIPSQLKPLSVNTSGGVQTILMPVNKVVQSFSTSKPPAILPVAAPTPVVPSSAPAAVAKVKTEPETPGPSCLSQEGQTAVKTEESSELGNYVIKIDHLETIQQLLTAVVKKIPLITAKSEDASCFSAKSVEQYYGWNIGKRRAAEWQRAMTMRKVLQEILEKNPRFHHLTPLKTKHIAHWCRCHGYTPPDPESLRNDGDSIEDVLTQIDSEPECPSSFSSADNLCRKLEDLQQFQKREPENEEEVDILSLSEPVKINIKKEQEEKQEEVKFYLPPTPGSEFIGDVTQKIGITLQPVALHRNVYASVVEDMILKATEQLVNDILRQALAVGYQTASHNRIPKEITVSNIHQAICNIPFLDFLTNKHMGILNEDQ [YEATS2]” was run?
A: 51.4 °C

Q: And the melting temperature ([1]; cell cycle stage: mitosis)?
A: 49.7 °C

Q: And the “solubility in G1/S (log2)” value [2]?
A: -0.495

Q: And the “solubility change mitosis (log2)” value [3]?
A: 0.161

Q: What does the source list for “MSGSLGRAAAALLRWGRGAGGGGLWGPGVRAAGSGAGGGGSAEQLDALVKKDKVVVFLKGTPEQPQCGFSNAVVQILRLHGVRDYAAYNVLDDPELRQGIKDYSNWPTIPQVYLNGEFVGGCDILLQMHQNGDLVEELKKLGIHSALLDEKKDQDSK [GLRX5]”?
A: melting temperature ([1]; cell cycle stage: G1/S): 53.9 °C; melting temperature ([1]; cell cycle stage: mitosis): 53 °C; solubility in G1/S (log2) [2]: -0.00395; solubility change mitosis (log2) [3]: -0.0285

Q: What does the source list for “MSRLIVKNLPNGMKEERFRQLFAAFGTLTDCSLKFTKDGKFRKFGFIGFKSEEEAQKAQKHFNKSFIDTSRITVEFCKSFGDPAKPRAWSKHAQKPSQPKQPPKDSTTPEIKKDEKKKKVAGQLEKLKEDTEFQEFLSVHQRRAQAATWANDGLDAEPSKGKSKPASDYLNFDSDSGQESEEEGAGEDLEEEASLEPKAAVQKELSDMDYLKSKMVKAGSSSSSEEEESEDEAVHCDEGSEAEEEDSSATPVLQERDSKGAGQEQGMPAGKKRPPEARAETEKPANQKEPTTCHTVKLRGAPFNVTEKNVMEFLAPLKPVAIRIVRNAHGNKTGYIFVDFSNEEEVKQALKCNREYMGGRYIEVFREKNVPTTKGAPKNTTKSWQGRILGENEEEEDLAESGRLFVRNLPYTSTEEDLEKLFSKYGPLSELHYPIDSLTKKPKGFAFITFMFPEHAVKAYSEVDGQVFQGRMLHVLPSTIKKEASEDASALGSSSYKKKKEAQDKANSASSHNWNTLFMGPNAVADAIAQKYNATKSQVFDHETKGSVAVRVALGETQLVQEVRRFLIDNGVSLDSFSQAAAERSKTVILVKNLPAGTLAAQLQETFGHFGSLGRVLLPEGGITAIVEFLEPLEARKAFRHLAYSKFHHVPLYLEWAPVGVFSSTAPQKKKLQDTPSEPMEKDPAEPETVPDGETPEDENPTEEGADNSSAKMEEEEEEEEEEEESLPGCTLFIKNLNFDTTEEKLKEVFSKVGTVKSCSISKKKNKAGVLLSMGFGFVEYRKPEQAQKALKQLQGHVVDGHKLEVRISERATKPAVTLARKKQVPRKQTTSKILVRNIPFQAHSREIRELFSTFGELKTVRLPKKMTGTGTHRGFGFVDFLTKQDAKRAFNALCHSTHLYGRRLVLEWADSEVTLQALRRKTAAHFHEPPKKKRSVVLDEILEQLEGSDSDSEEQTLQL [RBM19]”?
A: melting temperature ([1]; cell cycle stage: G1/S): 48.5 °C; melting temperature ([1]; cell cycle stage: mitosis): 51.2 °C; solubility in G1/S (log2) [2]: -1.27; solubility change mitosis (log2) [3]: 0.706
